Molecular target: Cas7c (D. vulgaris)
Assay: cryo-EM structure

With Cas7c (natural protein) the stoichiometry N was 7.

Source: publication doi:10.1101/2022.06.15.496202
